# T1: IL5R-His, Interleukin-5 receptor subunit alpha (Homo sapiens) aa 22-342 (Homo sapiens, UniProt Q01344 22-342)
# T1 construct: not shown: His tag as the name implies
# T1 sequence (looked up): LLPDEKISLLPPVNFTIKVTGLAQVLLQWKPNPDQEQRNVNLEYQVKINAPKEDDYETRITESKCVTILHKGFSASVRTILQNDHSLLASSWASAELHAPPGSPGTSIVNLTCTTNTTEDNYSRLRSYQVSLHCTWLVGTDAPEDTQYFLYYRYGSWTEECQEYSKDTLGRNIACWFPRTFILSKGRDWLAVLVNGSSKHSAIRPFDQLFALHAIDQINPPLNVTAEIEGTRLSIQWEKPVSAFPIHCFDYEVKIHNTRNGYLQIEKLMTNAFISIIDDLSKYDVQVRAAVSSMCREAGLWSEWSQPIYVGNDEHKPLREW
# T2: hCD38-Avi, ADP-ribosyl cyclase/cyclic ADP-ribose hydrolase 1 (Homo sapiens) aa 43-300 (Homo sapiens, UniProt P28907 43-300)
# T2 construct: range 43-300; not shown: Avi tag as the name implies
# T2 sequence (looked up): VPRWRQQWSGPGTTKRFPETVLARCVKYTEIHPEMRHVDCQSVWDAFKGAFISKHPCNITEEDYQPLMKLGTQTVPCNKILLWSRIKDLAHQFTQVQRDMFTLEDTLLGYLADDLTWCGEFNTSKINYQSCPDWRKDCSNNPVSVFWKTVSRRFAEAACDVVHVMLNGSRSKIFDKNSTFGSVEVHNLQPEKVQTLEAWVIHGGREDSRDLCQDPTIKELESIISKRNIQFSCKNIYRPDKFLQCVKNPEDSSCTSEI
# T3: C-Avi-His-TEVs-HSA_hBCMA, Tumor necrosis factor receptor superfamily member 17 (Homo sapiens) aa 1-54 (Homo sapiens, UniProt Q02223 1-54)
# T3 construct: range 1-54; not shown: Avi, His, TEV site and HSA parts as the name implies
# T3 sequence (looked up): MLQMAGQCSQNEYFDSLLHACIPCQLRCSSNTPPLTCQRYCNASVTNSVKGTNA
# T4: hIL4R-His, Interleukin-4 receptor subunit alpha (Homo sapiens) aa 27-227 (Homo sapiens, UniProt P24394 27-227)
# T4 construct: range 27-227; not shown: His tag as the name implies
# T4 sequence (looked up): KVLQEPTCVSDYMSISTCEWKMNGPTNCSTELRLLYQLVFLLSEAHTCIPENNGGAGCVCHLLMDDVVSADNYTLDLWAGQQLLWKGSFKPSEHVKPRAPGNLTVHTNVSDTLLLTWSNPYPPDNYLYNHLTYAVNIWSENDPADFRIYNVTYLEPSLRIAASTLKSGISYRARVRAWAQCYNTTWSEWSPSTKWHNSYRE
# How the values were obtained:
# [1] = biological target: T1, IL5R-His, Interleukin-5 receptor …; experiment: BLI Octet RED 384; antibody on ProA sensor, antigen 30 ug/ml
# [2] = biological target: T2, hCD38-Avi, ADP-ribosyl cyclase/cyclic …; experiment: as above
# [3] = biological target: T3, C-Avi-His-TEVs-HSA_hBCMA, Tumor …; experiment: as above
# [4] = biological target: T5, extracellular domain of the human PD-1 protein (hPD1ex-H6F) (Homo sapiens, UniProt Q15116 21-170); experiment: BLI Octet RED 384; antibody on ProA sensor, antigen in solution; 1:1 global fit
# T5 construct: Molecular weight 20.6 kDa; made in CHO cells; also called hPDlex-H6F; not shown: C-terminal His and FLAG tags
# Protocol: The experiments were carried out using a kinetic buffer solution (hereinafter referred to as 1×KB) having the following formulation: 4.3 mM Na₂HPO₄; 136.9 mM NaCl, 1.5 mM KH₂PO₄; 2.7 mM KCl; the volume fraction of the added Tween 20 was 0.1%; the mass fraction of the added BSA (bovine serum albumin) was 0.1%; pH 7.4. Before the measurement, the ProA sensors were regenerated with a solution of 50 mM glycine and hydrochloric acid, pH 1.8 (5 seconds in the regenerating solution, 5 seconds in 1×KB, three repetitions). In the case of the hPD1ex-H6F and hCSF1R_His antigens, the Protein A (ProA) biosensors (ForteBio) were immersed in a solution with antibodies at a concentration of 10 μg/ml for 60 seconds to immobilize same. The baseline was recorded in 1×KB for 60 seconds. The sensors loaded with the antibody were then immersed into wells containing a solution of the target antigen (analyte) in a kinetic buffer for 90 seconds. Measurements were performed for solutions with hPDlex-H6F analyte at concentrations of 2.50 μg/ml (121.4 nM), 1.25 μg/ml (60.7 nM), 0.625 μg/ml (30.35 nM). […] Then we detected complex dissociation in 1×KB for 210 s for hPDlex-H6F, 300 s for hCSF1R_His.
# All measurements were carried out at 30° C., orbital mixing speed was 1,000 revolutions per minute.
# To obtain numerical values of kinetic constants (kₒₙ is the on/association rate constant, kdis is the dissociation rate constant, KD is the equilibrium dissociation constant or affinity constant), the resulting sensograms were processed according to the 1:1 interaction model using Global Fit (selection of one set of kon, kdis, KD constants to analyze several sensograms of different concentrations) of the ForteBio Octet Data Analysis 9.0 software.
# [5] = biological target: T4, hIL4R-His, Interleukin-4 receptor …; experiment: BLI Octet RED 384; antibody on ProA sensor, antigen 30 ug/ml (1154 nM); response at end of association
# Protocol: (§1) Experimental study of nonspecific binding of bispecific chimeric antibodies to non-target antigens was performed on Forte Bio Octert RED 384. Protein A (ProA) biosensors (ForteBio) were immersed into a solution containing antibodies at a concentration of 10 μg/ml for 150 seconds to immobilize same. The baseline was recorded in a 1×KB solution for 30 seconds. The antibody-loaded sensors were then immersed into wells containing non-target antigens at a concentration of 30 μg/ml for 150 seconds. Complex dissociation was then recorded for 30 seconds.
# (§2) The reference sensors went through all the steps as the sensors used to record analyte sensograms did, with the exception of the association step—at the association step, the sensors were immersed in a kinetic buffer solution without analyte (the reference sensor signals were measured in parallel with the recording of the main sensograms). The reference signal was subtracted from the signal received on sensors interacting with the analyte during the processing of sensograms.
# (§3) Sensograms were processed using ForteBio Octet Data Analysisn 9.0 software. To report no non-specific interaction, the recorded signal level was checked at the end of the association step (the response parameter).
# [6] = biological target: T6, extracellular domain of the human CSF1R protein (hCSF1R_His) (Homo sapiens, UniProt P07333 20-512); experiment: BLI Octet RED 384; antibody on ProA sensor, antigen 30 ug/ml (522.5 nM); response at end of association
# T6 construct: range 20-512; Molecular weight 57.4 kDa; made in CHO cells; also called hCSF1_His; not shown: C-terminal His and FLAG tags
# Protocol: as §1, §2, §3
# T5 sequence (Q15116 21-170 limits assumed, form in doubt): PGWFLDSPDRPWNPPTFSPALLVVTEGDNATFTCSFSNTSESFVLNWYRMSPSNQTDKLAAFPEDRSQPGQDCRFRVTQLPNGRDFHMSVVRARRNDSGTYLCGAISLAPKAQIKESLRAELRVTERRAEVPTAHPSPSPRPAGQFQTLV
# T6 sequence (P07333 20-512 limits assumed): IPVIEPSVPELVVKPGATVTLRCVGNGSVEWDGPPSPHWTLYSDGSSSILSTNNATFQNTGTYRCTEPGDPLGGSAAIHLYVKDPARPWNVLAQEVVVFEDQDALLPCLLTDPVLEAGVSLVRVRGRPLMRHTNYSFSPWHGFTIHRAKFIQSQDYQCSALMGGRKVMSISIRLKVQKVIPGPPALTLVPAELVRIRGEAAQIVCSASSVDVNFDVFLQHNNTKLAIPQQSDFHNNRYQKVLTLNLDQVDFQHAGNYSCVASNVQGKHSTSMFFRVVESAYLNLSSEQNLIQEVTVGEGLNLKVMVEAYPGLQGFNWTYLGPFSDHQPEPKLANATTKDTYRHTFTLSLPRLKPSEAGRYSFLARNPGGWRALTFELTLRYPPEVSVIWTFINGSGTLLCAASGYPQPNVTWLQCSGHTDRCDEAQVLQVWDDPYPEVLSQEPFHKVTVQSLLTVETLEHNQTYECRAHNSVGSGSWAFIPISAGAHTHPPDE
binding result [1],binding result [2],Kd [4],koff [4],kon [4],Signal level (nm) [5],Signal level (nm) [6],Binder,binding result [3]
no binding (tested: 757.6 nM),no binding (tested: 854.7 nM),5.69 nM,0.00101 s⁻¹,178000 M⁻¹ s⁻¹,-0.0057 nm,0.0034 nm,"02-005, bivalent bispecific chimeric antibody that specifically binds to PD1 and CD20 (bispecific antibody, human IgG1, kappa, L234A L235A, Produced in CHO cells) heavy 1: EVQLVESGGGLVQPGGSLRLSCAASGYTFTSYNMHWVRQAPGKGLEWVGAIYPGNGDTSYNQKFKGRFTISVDKSKNTLYLQMNSLRAEDTAVYYCARVVYYSNSYWYFDVWGQGTLVTVSSASTKGPSVFPLAPSSKSTSGGTAALGCLVKDYFPEPVTVSWNSGALTSGVHTFPAVLQSSGLYSLSSVVTVPSSSLGTQTYICNVNHKPSNTKVDKRVEPKSCDKTHTCPPCPAPEAAGGPSVFLFPPKPKDTLYITREPEVTCVVVDVSHEDPEVKFNWYVDGVEVHNAKTKPREEQYNSTYRVVSVLTVLHQDWLNGKEYKCKVSNKALPAPIEKTISKAKGQPREPQVCTLPPSRDELTKNQVSLSCAVKGFYPSDIAVEWESNGQPENNYKTTPPVLDSDGSFFLVSKLTVDKSRWQQGNVFSCSVMHEALHNHYTQKSLSLSPGK light 1: DIQMTQSPSSLSASVGDRVTITCRASSSVSYMHWYQQKPGKAPKPLIYAPSNLASGVPSRFSGSGSGTDFTLTISSLQPEDFATYYCQQWSFNPPTFGQGTKVEIKRTVAAPSVFIFPPSDEQLKSGTASVVCLLNNFYPREAKVQWKVDNALQSGNSQESVTEQDSKDSTYSLSSTLTLSKADYEKHKVYACEVTHQGLSSPVTKSFNRGEC heavy 2: not shown light 2: QPVLTQPLSVSVALGQTARITCGGNNIGSKNVHWYQQKPGQAPVLVIYRDSNRPSGIPERFSGSNSGNTATLTISRAQAGDEADYYCQVWDSSTAVFGTGTKLTVLQQRQVKPEAWLSSGPSPGPGRLQLVCHVSGFYPKPVWVMWMRGEQEQQGTQLGDILPNANWTWYLRATLDVADGEAAGLSCRVKHSSLEGQDIILYWRGSC",no binding (tested: 391.2 nM)
no binding (tested: 757.6 nM),no binding (tested: 854.7 nM),4.49 nM,0.00109 s⁻¹,242000 M⁻¹ s⁻¹,0.0051 nm,0.537 nm,"02-007, bivalent bispecific chimeric antibody that specifically binds to PD1 and CSF1R (bispecific antibody, human IgG1, kappa, L234A L235A, Produced in CHO cells) heavy 1: QVQLVESGGGLVRPGGSLRLSCAASEFTFDDYAMSWVRQAPGKGLEWVSAISWNGGSTNYADSVKGRFTISRDNAKNSLYLQMNSLRAEDTALYYCASTVEVAHRRLYKYLEVWGQGTLVTVSSASTKGPSVFPLAPSSKSTSGGTAALGCLVKDYFPEPVTVSWNSGALTSGVHTFPAVLQSSGLYSLSSVVTVPSSSLGTQTYICNVNHKPSNTKVDKRVEPKSCDKTHTCPPCPAPEAAGGPSVFLFPPKPKDTLYITREPEVTCVVVDVSHEDPEVKFNWYVDGVEVHNAKTKPREEQYNSTYRVVSVLTVLHQDWLNGKEYKCKVSNKALPAPIEKTISKAKGQPREPQVCTLPPSRDELTKNQVSLSCAVKGFYPSDIAVEWESNGQPENNYKTTPPVLDSDGSFFLVSKLTVDKSRWQQGNVFSCSVMHEALHNHYTQKSLSLSPGK light 1: QAGLTQPPSVSVAPGQTARITCGGNNIGSKSVHWYQQKPGQAPVLVVYGDSDRPSGIPERFSGSNSGNTATLTISRVEAGDEADYYCQVWDISSDHVVFGGGTQLTVLRTVAAPSVFIFPPSDEQLKSGTASVVCLLNNFYPREAKVQWKVDNALQSGNSQESVTEQDSKDSTYSLSSTLTLSKADYEKHKVYACEVTHQGLSSPVTKSFNRGEC heavy 2: not shown light 2: QPVLTQPLSVSVALGQTARITCGGNNIGSKNVHWYQQKPGQAPVLVIYRDSNRPSGIPERFSGSNSGNTATLTISRAQAGDEADYYCQVWDSSTAVFGTGTKLTVLQQRQVKPEAWLSSGPSPGPGRLQLVCHVSGFYPKPVWVMWMRGEQEQQGTQLGDILPNANWTWYLRATLDVADGEAAGLSCRVKHSSLEGQDIILYWRGSC",no binding (tested: 391.2 nM)
no binding (tested: 757.6 nM),no binding (tested: 854.7 nM),2.51 nM,0.000691 s⁻¹,275000 M⁻¹ s⁻¹,-0.0075 nm,0.573 nm,"02-006, bivalent bispecific chimeric antibody that specifically binds to PD1 and CSF1R (bispecific antibody, human IgG1, kappa, L234A L235A, Produced in CHO cells) heavy 1: QVQLVQSGGGLVQPGGSLRLSCAASGFTFSSYWMYWVRQVPGKGLEWVSAIDTGGGRTYYADSVKGRFAISRVNAKNTMYLQMNSLRAEDTAVYYCARDEGGGTGWGVLKDWPYGLDAWGQGTLVTVSSASTKGPSVFPLAPSSKSTSGGTAALGCLVKDYFPEPVTVSWNSGALTSGVHTFPAVLQSSGLYSLSSVVTVPSSSLGTQTYICNVNHKPSNTKVDKRVEPKSCDKTHTCPPCPAPEAAGGPSVFLFPPKPKDTLYITREPEVTCVVVDVSHEDPEVKFNWYVDGVEVHNAKTKPREEQYNSTYRVVSVLTVLHQDWLNGKEYKCKVSNKALPAPIEKTISKAKGQPREPQVCTLPPSRDELTKNQVSLSCAVKGFYPSDIAVEWESNGQPENNYKTTPPVLDSDGSFFLVSKLTVDKSRWQQGNVFSCSVMHEALHNHYTQKSLSLSPGK light 1: QPVLTQPLSVSVALGQTARITCGGNNIGSKNVHWYQQKPGQAPVLVIYRDSNRPSGIPERFSGSNSGNTATLTISRAQAGDEADYYCQVWDSSTAVFGTGTKLTVLQRTVAAPSVFIFPPSDEQLKSGTASVVCLLNNFYPREAKVQWKVDNALQSGNSQESVTEQDSKDSTYSLSSTLTLSKADYEKHKVYACEVTHQGLSSPVTKSFNRGEC heavy 2: not shown light 2: QAGLTQPPSVSVAPGQTARITCGGNNIGSKSVHWYQQKPGQAPVLVVYGDSDRPSGIPERFSGSNSGNTATLTISRVEAGDEADYYCQVWDISSDHVVFGGGTQLTVLQRQVKPEAWLSSGPSPGPGRLQLVCHVSGFYPKPVWVMWMRGEQEQQGTQLGDILPNANWTWYLRATLDVADGEAAGLSCRVKHSSLEGQDIILYWRGSC",no binding (tested: 391.2 nM)
